B1: Fibroblast growth factor receptor 3 (Homo sapiens), P22607-1 (parent)
chain: MGAPACALALCVAVAIVAGASSESLGTEQRVVGRAAEVPGPEPGQQEQLVFGSGDAVELSCPPPGGGPMGPTVWVKDGTGLVPSERVLVGPQRLQVLNASHEDSGAYSCRQRLTQRVLCHFSVRVTDAPSSGDDEDGEDEAEDTGVDTGAPYWTRPERMDKKLLAVPAANTVRFRCPAAGNPTPSISWLKNGREFRGEHRIGGIKLRHQQWSLVMESVVPSDRGNYTCVVENKFGSIRQTYTLDVLERSPHRPILQAGLPANQTAVLGSDVEFHCKVYSDAQPHIQWLKHVEVNGSKVGPDGTPYVTVLKTAGANTTDKELEVLSLHNVTFEDAGEYTCLAGNSIGFSHHSAWLVVLPAEEELVEADEAGSVYAGILSYGVGFFLFILVVAAVTLCRLRSPPKKGLGSPTVHKISRFPLKRQVSLESNASMSSNTPLVRIARLSSGEGPTLANVSELELPADPKWELSRARLTLGKPLGEGCFGQVVMAEAIGIDKDRAAKPVTVAVKMLKDDATDKDLSDLVSEMEMMKMIGKHKNIINLLGACTQGGPLYVLVEYAAKGNLREFLRARRPPGLDYSFDTCKPPEEQLTFKDLVSCAYQVARGMEYLASQKCIHRDLAARNVLVTEDNVMKIADFGLARDVHNLDYYKKTTNGRLPVKWMAPEALFDRVYTHQSDVWSFGVLLWEIFTLGGSPYPGIPVEELFKLLKEGHRMDKPANCTHDLYMIMRECWHAAPSQRPTFKQLVEDLDRVLTVTSTDEYLDLSAPFEQYSPGGQDTPSSSSSGDDSVFAHDLLPPAPPSSGGSRT

Variants of: B1
Conditions: with fgf1_human FGF1, P05230
fgf1_human FGF1, P05230, sequence (P05230 whole entry): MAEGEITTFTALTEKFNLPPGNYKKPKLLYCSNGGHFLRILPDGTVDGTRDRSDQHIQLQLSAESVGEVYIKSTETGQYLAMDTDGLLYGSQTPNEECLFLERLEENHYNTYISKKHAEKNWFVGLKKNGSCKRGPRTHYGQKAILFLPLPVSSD

| Variant | effect of a mutation on the interaction |
| --- | --- |
| P250R | increasing interaction strength |

Variants of: B1
Conditions: with fgf2_human FGF2, P09038
fgf2_human FGF2, P09038, sequence (P09038 whole entry): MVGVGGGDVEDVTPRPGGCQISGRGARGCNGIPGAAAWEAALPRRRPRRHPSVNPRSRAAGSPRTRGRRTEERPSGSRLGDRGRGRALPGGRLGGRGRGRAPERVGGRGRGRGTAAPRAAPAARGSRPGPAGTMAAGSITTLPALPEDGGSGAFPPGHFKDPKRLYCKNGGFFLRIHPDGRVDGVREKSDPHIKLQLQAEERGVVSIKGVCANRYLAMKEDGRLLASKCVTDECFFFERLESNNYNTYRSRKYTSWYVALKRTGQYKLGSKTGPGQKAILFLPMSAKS

| Variant | effect of a mutation on the interaction |
| --- | --- |
| P250R | causing an interaction |

Variants of: B1
Conditions: with fgf9_human FGF9, P31371

| Variant | effect of a mutation on the interaction |
| --- | --- |
| P250R | causing an interaction |

— IntAct's records for PubMed 14613973
